According to paper PMC6461802, “Coupling of ssRNA cleavage with DNase activity in type III-A CRISPR-Csm revealed by cryo-EM and biochemistry” (Cell Research, 2019):
Numbering of substitutions follows the chain as printed. In names and notes the source's numbering stands. Several values for one entry are separate records, joined by “and”; a condition that tells them apart may be missing. Equal values may be shown once.

T1: Cas10 (Csm1);Csm2;Csm3;Csm4 (Streptococcus thermophilus …, UniProt A0A0A7HFE1;A0A0A7HIX1;A0A0A7HIF0;A0A0A7HGA1 1-758;1-121;1-220;1-299, |||)
T1 sequence 1: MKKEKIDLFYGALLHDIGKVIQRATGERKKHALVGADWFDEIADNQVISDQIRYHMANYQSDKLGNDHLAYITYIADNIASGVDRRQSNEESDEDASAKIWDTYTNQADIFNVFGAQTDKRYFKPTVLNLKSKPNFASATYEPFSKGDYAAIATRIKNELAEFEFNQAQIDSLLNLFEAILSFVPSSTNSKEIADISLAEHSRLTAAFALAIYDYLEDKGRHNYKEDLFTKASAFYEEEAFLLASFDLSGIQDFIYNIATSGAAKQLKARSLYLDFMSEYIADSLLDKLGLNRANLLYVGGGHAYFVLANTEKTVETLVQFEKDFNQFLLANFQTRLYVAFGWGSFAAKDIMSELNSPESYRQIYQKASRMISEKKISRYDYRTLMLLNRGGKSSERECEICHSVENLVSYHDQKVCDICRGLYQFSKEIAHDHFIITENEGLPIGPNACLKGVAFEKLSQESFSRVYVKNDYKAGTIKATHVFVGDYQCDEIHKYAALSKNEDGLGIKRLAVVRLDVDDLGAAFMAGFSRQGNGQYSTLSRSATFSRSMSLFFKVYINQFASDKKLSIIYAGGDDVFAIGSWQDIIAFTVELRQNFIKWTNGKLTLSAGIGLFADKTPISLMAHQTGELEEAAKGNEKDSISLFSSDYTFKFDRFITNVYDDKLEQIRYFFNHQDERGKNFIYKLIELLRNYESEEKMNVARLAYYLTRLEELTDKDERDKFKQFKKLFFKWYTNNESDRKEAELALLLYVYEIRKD
T1 sequence 2: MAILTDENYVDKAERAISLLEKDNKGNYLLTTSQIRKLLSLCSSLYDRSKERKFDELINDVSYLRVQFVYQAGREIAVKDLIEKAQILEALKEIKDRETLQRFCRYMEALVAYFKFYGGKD
T1 sequence 3: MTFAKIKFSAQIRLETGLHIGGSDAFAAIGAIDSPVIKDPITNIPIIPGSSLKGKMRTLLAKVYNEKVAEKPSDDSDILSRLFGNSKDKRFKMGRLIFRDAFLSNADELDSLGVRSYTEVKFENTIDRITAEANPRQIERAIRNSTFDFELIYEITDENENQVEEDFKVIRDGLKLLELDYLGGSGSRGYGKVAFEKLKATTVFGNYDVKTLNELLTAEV
T1 sequence 4: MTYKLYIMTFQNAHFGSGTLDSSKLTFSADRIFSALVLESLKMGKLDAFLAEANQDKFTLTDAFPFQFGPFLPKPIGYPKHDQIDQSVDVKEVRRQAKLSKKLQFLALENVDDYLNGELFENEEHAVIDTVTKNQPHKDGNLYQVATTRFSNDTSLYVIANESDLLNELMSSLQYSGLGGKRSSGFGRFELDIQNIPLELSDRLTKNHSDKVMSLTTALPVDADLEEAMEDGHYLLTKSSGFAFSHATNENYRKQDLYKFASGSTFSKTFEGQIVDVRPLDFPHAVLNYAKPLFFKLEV

B1: Csm2 of the Streptococcus thermophilus type III-A Csm complex (natural protein, Streptococcus thermophilus DGCC8004)
chain: T1 sequence 2
notes: Csm2, Streptococcus thermophilus DGCC8004; csm2 is present both on the untagged gene cassette and on the His-tag plasmid, so the 3 or 5 copies in the complex may be a mix of tagged and untagged chains; No tag removal is described; also called Csm2a; Csm2b
B2: Csm3 of the Streptococcus thermophilus type III-A Csm complex (wild type, apo state) (natural protein, Streptococcus thermophilus DGCC8004)
chain: T1 sequence 3
notes: Csm3, Streptococcus thermophilus DGCC8004; also called Csm3a
B3: Csm3 D33A of the Streptococcus thermophilus type III-A Csm complex (target ssRNA-bound state) (natural protein, Streptococcus thermophilus DGCC8004)
chain: T1 sequence 3 with D33A
notes: Csm3, Streptococcus thermophilus DGCC8004, with D33A to eliminate ssRNA cleavage

How the values were obtained:
[1] = target: T1, Cas10 (Csm1);Csm2;Csm3;Csm4; test: cryo-EM; small conformation, 3.3 A; endogenous ATP in Cas10; Cryo-EM: complex ~0.4 mg/mL, purified in 10 mM Tris-HCl pH 8.0, 150 mM NaCl, 3 mM DTT; grids blotted at 4 C; ternary reconstitution conditions not given; conditions: protein: recombinant;recombinant;recombinant;recombinant; tags: ;His (N-terminal, pET-28a);;; copies: 1;3;5;1; single strand, 1 copy
[2] = target: the molecule itself; test: cryo-EM structure; apo state: StCsm complex with 40 nt crRNA, wild-type Csm3; big (3.4 Å) and small (3.3 Å) particle populations; ~0.4 mg/mL, buffer 10 mM Tris-HCl pH 8.0, 150 mM NaCl, 3 mM DTT
[3] = target: the molecule itself; test: cryo-EM structure; target ssRNA-bound state: StCsm complex with 40 nt crRNA and 49 nt target ssRNA, Csm3 D33A; big (3.4 Å) and small (3.5 Å) particle populations; ~0.4 mg/mL, buffer 10 mM Tris-HCl pH 8.0, 150 mM NaCl, 3 mM DTT

| Binder | stoichiometry N [2] | other results |
| --- | --- | --- |
| ACGGAAACUUUCGUAACUGUUUAAUUCUGUUCACUUAUUC (ssRNA) [40 nt crRNA] | – | binding result [1]: binds |
| B1 | 5 and 3 | – |
| B2 | 7 and 5 | – |
| B3 | – | stoichiometry N [3]: 7 and 5 |
